Results as given in patent US9994628B2, “Peptides and combination of peptides for use in immunotherapy against various tumors” (IMMATICS BIOTECHNOLOGIES GMBH, priority 2015, dated 2018).

Molecular target: HLA-A*02:01 (Homo sapiens, UniProt P04439, D140Y/D185E/D98H/E176V/E277Q/G131W/G231S/I119V/I121R/I166T/I218V/L300P/L318F/N151K/N90K/P208A/P217A/Q86G/Q94H/R138H/R169H/T345S)
Assay: MHC binding assay: UV-ligand exchange and β2m ELISA (peptide exchange yield, Table 7)
Details: binding of HLA-class I restricted peptides to HLA-A*02:01, UV-ligand exchange
Text: Candidate peptides for T cell based therapies according to the present invention were further tested for their MHC binding capacity (affinity). The individual peptide-MHC complexes were produced by UV-ligand exchange, where a UV-sensitive peptide is cleaved upon UV-irradiation, and exchanged with the peptide of interest as analyzed. Only peptide candidates that can effectively bind and stabilize the peptide-receptive MHC molecules prevent dissociation of the MHC complexes. To determine the yield of the exchange reaction, an ELISA was performed based on the detection of the light chain (β2 m) of stabilized MHC complexes. The assay was performed as generally described in Rodenko et al. (Rodenko et al., 2006).
96 well MAXISorp plates (NUNC) were coated over night with 2 ug/ml streptavidin in PBS at room temperature, washed 4× and blocked for 1 h at 37° C. in 2% BSA containing blocking buffer. Refolded HLA-A*02:01/MLA-001 monomers served as standards, covering the range of 15-500 ng/ml. Peptide-MHC monomers of the UV-exchange reaction were diluted 100 fold in blocking buffer. Samples were incubated for 1 h at 37° C., washed four times, incubated with 2 ug/ml HRP conjugated anti-β2 m for 1 h at 37° C., washed again and detected with TMB solution that is stopped with […]. Absorption was measured at 450 nm. Candidate peptides that show a high exchange yield (preferably higher than 50%, most preferred higher than 75%) are generally preferred for a generation and production of antibodies or fragments thereof, and/or T cell receptors or fragments thereof, as they show sufficient avidity to the MHC molecules and prevent dissociation of the MHC complexes.

| Substance | Peptide exchange (MHC class I binding score, peptide exchange yield) |
| --- | --- |
| 35 (VIIKGLEEI; listed as Homo sapiens) [compound 35] | ++ (≥20% = ++) |
| 36 (TVLQELINV; listed as Homo sapiens) [compound 36] | +++ (≥50% = +++) |
| 38 (VLQQESNFL; listed as Homo sapiens) [compound 38] | ++ (≥20% = ++) |
| 40 (KIWEELSVLEV; listed as Homo sapiens) [compound 40] | +++ (≥50% = +++) |
| 42 (KQMSISTGL; listed as Homo sapiens) [compound 42] | ++ (≥20% = ++) |
| 44 (AVFNLVHVV; listed as Homo sapiens) [compound 44] | +++ (≥50% = +++) |
| 45 (FLPVSVVYV; listed as Homo sapiens) [compound 45] | +++ (≥50% = +++) |
| 47 (GLNGFNVLL; listed as Homo sapiens) [compound 47] | +++ (≥50% = +++) |
| 48 (KISDFGLATV; listed as Homo sapiens) [compound 48] | +++ (≥50% = +++) |
| 49 (KLIGNIHGNEV; listed as Homo sapiens) [compound 49] | ++ (≥20% = ++) |
| 50 (ILLSVLHQL; listed as Homo sapiens) [compound 50] | +++ (≥50% = +++) |
| 54 (YLVPGLVAA; listed as Homo sapiens) [compound 54] | +++ (≥50% = +++) |
| 58 (HLLGEGAFAQV; listed as Homo sapiens) [compound 58] | +++ (≥50% = +++) |
| 66 (AMFPDTIPRV; listed as Homo sapiens) [compound 66] | ++ (≥20% = ++) |

Now from value to substance:

| Peptide exchange (MHC class I binding score, peptide exchange yield) | Substance |
| --- | --- |
| ++ (≥20% = ++) | 37 (QIVELIEKI; listed as Homo sapiens) [compound 37] |
| +++ (≥50% = +++) | 41 (IVTEIISEI; listed as Homo sapiens) [compound 41] |
| ++ (≥20% = ++) | 51 (LDSEALLTL; listed as Homo sapiens) [compound 51] |
| ++ (≥20% = ++) | 52 (TIGIPFPNV; listed as Homo sapiens) [compound 52] |
| + (≥10% = +) | 53 (AQHLSTLLL; listed as Homo sapiens) [compound 53] |
| +++ (≥50% = +++) | 55 (HLFDKIIKI; listed as Homo sapiens) [compound 55] |
| ++ (≥20% = ++) | 57 (TLYPGRFDYV; listed as Homo sapiens) [compound 57] |
| +++ (≥50% = +++) | 59 (ALADGIKSFLL; listed as Homo sapiens) [compound 59] |
| +++ (≥50% = +++) | 60 (YLFSQGLQGL; listed as Homo sapiens) [compound 60] |
| +++ (≥50% = +++) | 61 (ALYPKEITL; listed as Homo sapiens) [compound 61] |
| +++ (≥50% = +++) | 62 (SLVENIHVL; listed as Homo sapiens) [compound 62] |
| +++ (≥50% = +++) | 63 (KLLPMVIQL; listed as Homo sapiens) [compound 63] |
| ++ (≥20% = ++) | 64 (SLYAGSNNQV; listed as Homo sapiens) [compound 64] |
| ++ (≥20% = ++) | 65 (SLSEKSPEV; listed as Homo sapiens) [compound 65] |
